Test results from patent US20250270309A1 (Eli Lilly, published 2025).

B1: Ab1 (antibody, human IgG4 S228P, kappa, F234A L235A, V domains shown)
VH: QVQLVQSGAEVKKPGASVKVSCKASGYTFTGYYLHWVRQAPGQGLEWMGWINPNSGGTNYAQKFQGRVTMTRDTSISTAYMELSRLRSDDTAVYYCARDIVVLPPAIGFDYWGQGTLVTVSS
VL: AIQLTQSPSSLSASVGDRVTITCRASQDIRSDFGWYQQKPGKAPKLLIYAASSLQSGVPSRFSGSGSGTDFTLTISSLQPEDFATYYCLQDYNYPWTFGQGTKVEIKR
notes: Anti-human IL-19 antibody; Detected with anti-human IgG4 reagents in the PK ELISA, so IgG4; also called mAb 1; mAb1
B2: Ab2 (antibody, human IgG4 S228P, kappa, F234A L235A, V domains shown)
VH: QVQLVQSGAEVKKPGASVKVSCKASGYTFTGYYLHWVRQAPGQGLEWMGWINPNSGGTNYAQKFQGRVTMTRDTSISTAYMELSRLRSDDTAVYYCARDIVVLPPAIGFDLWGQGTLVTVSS
VL: B1 VL
notes: Anti-human IL-19 antibody; also called mAb 2; mAb2
B3: anti-murine IL-19 Ab mAb 3 (antibody, V domains shown)
VH: QQLEESGGGLAKPEGSLTLTCKTSGFDLSSTYYMSWVRQAPGKGLEWIASIVTSGRSGASYYANWAKGRFTISKTSSTTVTLQMTSLAAADTASYFCVRDLPAPTDDRGLWGPGTLVVVSS
VL: AQVLTQTPSSVSEPVGGTVTINCQASESVYNKNWLSWFQQKPGQPPKLLIYDSSDLASGVPSRFKGSGSGTHFTLTISDVQCGDAATYYCGGSYTDTYVFGGGTEVVVK
notes: also called anti-murine IL-19 Ab3
B4: anti-murine IL-19 Ab mAb4 (antibody, V domains shown)
VH: QEQLKESGGGLVQPGGSLKLSCKASGFPLSSYGFSWVRQAPGKGLEWIGYLDPVFGSTLSAHTVNGRLTISSDNAQNTLYLQLNSLTAADTATYFCARGIGYVYYGYTYDLWGPGTLVTVSS
VL: DIVMTQTPASVEAAVGGTVTIKCSASASIYEYLSWYQQKPGQRPKLLIYGASVLTDGVSSRFKGSGSGTEFTLTISDLEAADAATYYCQSYNDGSSSGDAHVFGGGTEVVVK
notes: also called anti-murine IL-19 Ab4

Experiments:
human IL-19 [1] = biological target: T1, human IL-19 (human, UniProt Q9UHD0 25-177); experiment: MSD-SET solution equilibrium titration, 10 pM fixed biotinylated human IL-19, 37 C, mean of 3 experiments
T1 construct: Recombinant; also called recombinant human IL-19; biotinylated human IL-19
T1 sequence: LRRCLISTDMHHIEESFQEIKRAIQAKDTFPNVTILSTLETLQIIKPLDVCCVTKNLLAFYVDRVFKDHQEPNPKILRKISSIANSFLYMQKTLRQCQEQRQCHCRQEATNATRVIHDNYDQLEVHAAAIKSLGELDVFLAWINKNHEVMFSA
Description: A Meso Scale Discovery Solution Equilibrium Titration (MSD-SET) assay, measured with a SECTOR® Imager 6000 (Meso Scale Diagnostics), is used to assess binding of exemplified IL-19 antibodies of the present invention to biotinylated human IL-19 (having the amino acid sequence set for in SEQ ID NO: 1).
Except as noted, all the reagents and materials are from Meso Scale Diagnostics (Rockville, Maryland). Recombinant human IL-19 reagents are biotinylated using the EZ-link sulfo-NHS-Biotin kit (Thermo Cat #A39257). Briefly, 20 pM biotinylated human IL-19 is mixed in a 1:1 ratio with a 3-fold dilution series of exemplified antibody samples of the present invention (mAb 1 and mAb 2) to give a final concentration of: 10 pM biotinylated human IL-19 and a 11-point 3-fold antibody gradient from 1 nM to 0.017 pM. The mix is incubated at 37° C. for 72 hrs. […] After washing three times with wash buffer, 150 μL of 1× Read Buffer T (Cat. #R92TC-1) is added to the well and analyzed on a SECTOR® Imager 6000 (Meso Scale Diagnostics) 5 min after buffer addition. […]
The equilibrium KD is determined by fitting a sigmoidal curve to the electrochemiluminescence (ECL) response vs. log (IL-19 concentration) using assay development tool kit graphed with normalized ECL values.

human IL-19 [2] = biological target: T1, human IL-19; experiment: cell-based or functional assay
cyno IL-19 [3] = biological target: T2, cyno IL-19 (cyno); experiment: cell-based or functional assay
T2 chain: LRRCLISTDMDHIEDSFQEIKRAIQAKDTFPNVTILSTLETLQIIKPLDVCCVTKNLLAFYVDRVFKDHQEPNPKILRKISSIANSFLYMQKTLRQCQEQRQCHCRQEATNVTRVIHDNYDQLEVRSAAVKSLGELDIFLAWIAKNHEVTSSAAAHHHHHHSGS

human IL-19 [4] = biological target: T1, human IL-19; experiment: cell-based or functional assay; remark: listed apart in the source
cyno IL-19 [5] = biological target: T2, cyno IL-19; experiment: cell-based or functional assay
mouse IL-19 = biological target: T3, mouse IL-19 (mouse, UniProt Q8CJ70 25-176, limits assumed); experiment: yeast surface display of single-chain Fab library, panning with mouse IL-19
T3 construct: Used as immunogen and for panning; in the in-house ELISA it is the IL-19 secreted in mouse ear cultures; also called murine IL-19
T3 sequence (looked up): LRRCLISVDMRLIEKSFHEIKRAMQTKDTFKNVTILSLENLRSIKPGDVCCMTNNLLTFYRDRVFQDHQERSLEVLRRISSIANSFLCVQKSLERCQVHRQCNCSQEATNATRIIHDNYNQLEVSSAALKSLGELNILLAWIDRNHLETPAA

| Binder | Kd (human IL-19 [1]) [nM] | IC50 with human IL-19 (IL-19 induced phospho-STAT3 signal, A431 cells) (human IL-19 [2]) [nM] | IC50 with Cyno IL-19 (IL-19 induced phospho-STAT3 signal, A431 cells) (cyno IL-19 [3]) [nM] | IC50 for human IL-19 (IL-19 induced IL20Ra/IL20Rb receptor dimerization signal, U2OS PathHunter cells) (human IL-19 [4]) [nM] | IC50 for Cyno IL-19 (IL-19 induced IL20Ra/IL20Rb receptor dimerization signal, U2OS PathHunter cells) (cyno IL-19 [5]) [nM] | binding result (mouse IL-19) |
| --- | --- | --- | --- | --- | --- | --- |
| B1 | 0.0131 | 2.31 | 1.82 | 3.46 | 2.79 |  |
| B2 | 0.0068 | 2.21 | 1.84 | 3.47 | 2.87 |  |
| B3 |  |  |  |  |  | binds |
| B4 |  |  |  |  |  | binds |
